Test results reported in the Immune Epitope Database (IEDB).

Columns and labels:
[1] = biological target: HLA-C*14:02; assay: IEDB peptide-MHC binding, purified MHC/competitive/fluorescence; filed as Kd, often an IC50 or EC50 that approximates it; ≥ and ≤ were set here for values at or beyond the usual limits of such assays; settings: source organism: Escherichia coli HS
[2] = biological target: HLA-C*06:02; assay: as above; settings: source organism: Escherichia coli HS
[3] = biological target: HLA-B*83:01; assay: as above
[4] = biological target: HLA-B*15:42; assay: as above
[5] = biological target: HLA-B*45:06; assay: as above
[6] = biological target: HLA-C*08:02; assay: IEDB peptide-MHC binding, purified MHC/direct/fluorescence; filed as Kd, often an IC50 or EC50 that approximates it; ≥ and ≤ were set here for values at or beyond the usual limits of such assays; settings: source organism: Escherichia coli HS
[7] = biological target: HLA-B*07:02; assay: as above
[8] = biological target: HLA-C*15:02; assay: as above
[9] = biological target: HLA-B*51:01; assay: as above; settings: source organism: Escherichia coli O157:H7
[10] = biological target: HLA-B*73:01; assay: IEDB peptide-MHC binding, purified MHC/competitive/fluorescence; filed as Kd, often an IC50 or EC50 that approximates it; ≥ and ≤ were set here for values at or beyond the usual limits of such assays
[11] = biological target: HLA-A*02:01; assay: IEDB peptide-MHC binding, purified MHC/competitive/radioactivity; ≥ and ≤ were set here for values at or beyond the usual limits of such assays; settings: source organism: Homo sapiens
[12] = biological target: HLA-B*27:20; assay: IEDB peptide-MHC binding, purified MHC/competitive/fluorescence; filed as Kd, often an IC50 or EC50 that approximates it; ≥ and ≤ were set here for values at or beyond the usual limits of such assays
[13] = biological target: HLA-C*06:02; assay: IEDB peptide-MHC binding, purified MHC/direct/fluorescence; filed as Kd, often an IC50 or EC50 that approximates it; ≥ and ≤ were set here for values at or beyond the usual limits of such assays
[14] = biological target: HLA-B*15:17; assay: IEDB peptide-MHC binding, purified MHC/competitive/fluorescence; filed as Kd, often an IC50 or EC50 that approximates it; ≥ and ≤ were set here for values at or beyond the usual limits of such assays; settings: source organism: Rickettsia prowazekii str. Madrid E
[15] = biological target: HLA-A*30:01; assay: as above; settings: source organism: Rickettsia prowazekii str. Madrid E
[16] = biological target: HLA-B*08:01; assay: as above; settings: source organism: Rickettsia prowazekii str. Madrid E
[17] = biological target: HLA-B*08:02; assay: IEDB peptide-MHC binding, purified MHC/direct/fluorescence; filed as Kd, often an IC50 or EC50 that approximates it; ≥ and ≤ were set here for values at or beyond the usual limits of such assays; settings: source organism: Rickettsia typhi str. Wilmington
[18] = biological target: HLA-A*69:01; assay: as above
[19] = biological target: HLA-A*11:01; assay: as above
[20] = biological target: HLA-B*73:01; assay: as above
[21] = biological target: HLA-A*01:01; assay: as above
[22] = biological target: HLA-A*03:01; assay: as above
[23] = biological target: HLA-B*18:01; assay: as above; settings: source organism: Rickettsia prowazekii
[24] = biological target: HLA-B*08:03; assay: as above; settings: source organism: Rickettsia typhi str. Wilmington
[25] = biological target: HLA-B*58:01; assay: as above
[26] = biological target: HLA-B*15:09; assay: as above; settings: source organism: Rickettsia typhi str. Wilmington
[27] = biological target: HLA-B*57:01; assay: as above; settings: source organism: Rickettsia prowazekii
[28] = biological target: HLA-A*26:01; assay: as above
[29] = biological target: HLA-A*31:01; assay: as above
[30] = biological target: HLA-A*68:02; assay: as above; settings: source organism: Rickettsia prowazekii
[31] = biological target: HLA-B*27:05; assay: as above
[32] = biological target: HLA-B*48:01; assay: as above
[33] = biological target: HLA-A*02:01; assay: as above
[34] = biological target: HLA-B*15:01; assay: as above
[35] = biological target: HLA-B*44:02; assay: as above; settings: source organism: Yersinia pestis Nepal516
[36] = biological target: HLA-B*40:01; assay: as above; settings: source organism: Yersinia pestis Nepal516
[37] = biological target: HLA-B*46:01; assay: as above; settings: source organism: Yersinia pestis Nepal516
[38] = biological target: HLA-B*15:02; assay: as above; settings: source organism: Yersinia enterocolitica subsp. enterocolitica 8081
[39] = biological target: HLA-B*35:01; assay: as above; settings: source organism: Yersinia pestis
[40] = biological target: HLA-A*02:19; assay: as above; settings: source organism: Yersinia enterocolitica subsp. enterocolitica 8081
[41] = biological target: HLA-B*40:01; assay: IEDB peptide-MHC binding, purified MHC/competitive/fluorescence; filed as Kd, often an IC50 or EC50 that approximates it; ≥ and ≤ were set here for values at or beyond the usual limits of such assays; settings: source organism: Salmonella enterica subsp. enterica serovar Paratyphi B str. SPB7
[42] = biological target: HLA-B*39:01; assay: as above; settings: source organism: Salmonella enterica subsp. enterica serovar Paratyphi B str. SPB7
[43] = source organism: Escherichia coli HS
[44] = source organism: Human herpesvirus 4 strain B95-8
[45] = source organism: Rickettsia prowazekii
[46] = source organism: Rickettsia prowazekii str. Madrid E
[47] = source organism: Brucella abortus 2308
[48] = source organism: human gammaherpesvirus 4
[49] = source organism: Yersinia pestis
[50] = source organism: Yersinia pestis Nepal516
[51] = source organism: Salmonella enterica subsp. enterica serovar Paratyphi B str. SPB7

YLREHIRAM gave a Kd [1] of 0.0018 µM, a Kd [2] of 0.0684 µM and a Kd [3, 43] of at least 5 µM. The Kd [4, 43] was at least 5 µM, the Kd [5, 43] was at least 5 µM and the Kd [6] was at least 20 µM. It also gave a Kd ([7]; source organism: Escherichia coli O157:H7) of 0.006 µM, a Kd [8, 43] of at least 20 µM and a Kd [9] of at least 20 µM.
YRGGGQQHV showed a Kd ([10]; source organism: Brucella abortus S19) of 3 µM.
ILTVILGVL showed an IC50 [11] of 0.381 µM.
KEWCGNLIV showed a Kd ([10]; source organism: Entamoeba histolytica) of at least 20 µM.
For RRRRRRAAL, the Kd [3, 44] was at least 5 µM, the Kd [4, 44] was at least 5 µM and the Kd [5, 44] was at least 5 µM. It also gave a Kd [12, 44] of at most 0.001 µM.
TRYYWDIHL was tested, and the Kd ([13]; source organism: Escherichia coli O157:H7 str. EDL933) was 0.051 µM.
With RRNRKALWL the Kd [14] was at least 20 µM, the Kd [15] was at least 20 µM and the Kd [16] was 3 µM. It also gave a Kd [17] of at least 20 µM, a Kd [18, 45] of at least 20 µM and a Kd [19, 45] of at least 20 µM. The Kd [20, 45] was 3.37 µM, the Kd [21, 45] was at least 20 µM and the Kd [22, 45] was at least 20 µM. For the same sequence, the Kd [13, 46] was 0.031 µM, the Kd [23] was at least 20 µM and the Kd [24] was at least 20 µM. The Kd [7, 45] was 6.89 µM, the Kd [25, 45] was at least 20 µM and the Kd [26] was at least 20 µM. For the same sequence, the Kd [8, 46] was at least 20 µM, the Kd [27] was at least 20 µM and the Kd ([28]; source organism: Rickettsia typhi str. Wilmington) was at least 20 µM. The Kd [29, 45] was at least 20 µM, the Kd [30] was at least 20 µM and the Kd [31, 45] was 0.0465 µM. It also gave a Kd [32, 45] of at least 20 µM, a Kd [33, 45] of at least 20 µM and a Kd [34, 45] of at least 20 µM.
In the case of YRSGVPVEK, the Kd ([20]; source organism: Brucella suis 1330) is reported as at least 20 µM, the Kd [31, 47] is reported as 0.0619 µM and the Kd [32, 47] is reported as at least 20 µM.
RRLHRLLLM gave a Kd [3, 48] of at least 5 µM, a Kd [4, 48] of at least 5 µM and a Kd [5, 48] of at least 5 µM. The Kd [12, 48] was at most 0.0001 µM.
WLWVSSSDM showed a Kd [18, 49] of 0.114 µM, a Kd [19, 50] of at least 20 µM and a Kd [35] of at least 20 µM. The Kd [21, 50] was at least 20 µM, the Kd [22, 50] was at least 20 µM and the Kd [36] was at least 20 µM. The Kd [37] was at least 20 µM, the Kd [38] was 0.003 µM and the Kd [7, 49] was at least 5 µM. For the same sequence, the Kd [39] was 0.0224 µM, the Kd [25, 50] was at least 20 µM and the Kd [28, 50] was at least 20 µM. It also gave a Kd [29, 50] of at least 20 µM, a Kd [31, 49] of at least 5 µM and a Kd [33, 49] of 1 µM. The Kd [34, 49] was 1.37 µM and the Kd [40] was 0.012 µM.
In the case of YESSHWLVV, the Kd [41] is reported as 0.005 µM, the Kd [3, 51] is reported as at least 5 µM and the Kd [4, 51] is reported as at least 5 µM. For the same sequence, the Kd [42] was 0.0372 µM, the Kd [5, 51] was at least 5 µM and the Kd [12, 51] was 0.113 µM.
